The target of the experiment is murine TLR2/TLR6 (mouse (endogenous in RAW 264.7 and P388.D1)) (UniProt Q9QUN7).

Starred links: 1 amine or outer side, 2 acyl side, 3 side chain; linkers in the order of their positions; H or OH if unused. No end group written: not given here. *: point of attachment. Suc = O=C(CCC(=O)[*:2])[*:1]; For = O=C*

UniProt Q9QUN7, sequence (Q9QUN7 25-784, chain 1 of 2): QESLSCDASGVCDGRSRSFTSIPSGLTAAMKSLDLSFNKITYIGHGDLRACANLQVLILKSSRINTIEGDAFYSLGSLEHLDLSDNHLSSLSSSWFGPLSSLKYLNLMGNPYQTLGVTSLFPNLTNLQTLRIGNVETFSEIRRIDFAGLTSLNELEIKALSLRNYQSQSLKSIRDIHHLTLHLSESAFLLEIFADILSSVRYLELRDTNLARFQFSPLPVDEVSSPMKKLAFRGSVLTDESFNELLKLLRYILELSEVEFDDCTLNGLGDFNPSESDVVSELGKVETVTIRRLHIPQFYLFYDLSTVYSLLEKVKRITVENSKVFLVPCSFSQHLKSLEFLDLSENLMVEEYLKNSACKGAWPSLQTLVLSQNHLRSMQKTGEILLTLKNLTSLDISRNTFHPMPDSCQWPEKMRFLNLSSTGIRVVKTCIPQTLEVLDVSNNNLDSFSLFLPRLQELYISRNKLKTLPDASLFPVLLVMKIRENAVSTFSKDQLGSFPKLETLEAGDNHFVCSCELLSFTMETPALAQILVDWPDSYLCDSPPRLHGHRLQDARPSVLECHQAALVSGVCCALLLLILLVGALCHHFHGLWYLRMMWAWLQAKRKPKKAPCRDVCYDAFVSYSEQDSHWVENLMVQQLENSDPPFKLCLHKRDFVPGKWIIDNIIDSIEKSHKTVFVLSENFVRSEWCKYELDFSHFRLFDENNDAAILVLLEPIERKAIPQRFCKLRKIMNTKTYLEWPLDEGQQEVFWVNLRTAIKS
UniProt Q9QUN7, sequence (Q9EPW9 28-795, chain 2 of 2, further chain): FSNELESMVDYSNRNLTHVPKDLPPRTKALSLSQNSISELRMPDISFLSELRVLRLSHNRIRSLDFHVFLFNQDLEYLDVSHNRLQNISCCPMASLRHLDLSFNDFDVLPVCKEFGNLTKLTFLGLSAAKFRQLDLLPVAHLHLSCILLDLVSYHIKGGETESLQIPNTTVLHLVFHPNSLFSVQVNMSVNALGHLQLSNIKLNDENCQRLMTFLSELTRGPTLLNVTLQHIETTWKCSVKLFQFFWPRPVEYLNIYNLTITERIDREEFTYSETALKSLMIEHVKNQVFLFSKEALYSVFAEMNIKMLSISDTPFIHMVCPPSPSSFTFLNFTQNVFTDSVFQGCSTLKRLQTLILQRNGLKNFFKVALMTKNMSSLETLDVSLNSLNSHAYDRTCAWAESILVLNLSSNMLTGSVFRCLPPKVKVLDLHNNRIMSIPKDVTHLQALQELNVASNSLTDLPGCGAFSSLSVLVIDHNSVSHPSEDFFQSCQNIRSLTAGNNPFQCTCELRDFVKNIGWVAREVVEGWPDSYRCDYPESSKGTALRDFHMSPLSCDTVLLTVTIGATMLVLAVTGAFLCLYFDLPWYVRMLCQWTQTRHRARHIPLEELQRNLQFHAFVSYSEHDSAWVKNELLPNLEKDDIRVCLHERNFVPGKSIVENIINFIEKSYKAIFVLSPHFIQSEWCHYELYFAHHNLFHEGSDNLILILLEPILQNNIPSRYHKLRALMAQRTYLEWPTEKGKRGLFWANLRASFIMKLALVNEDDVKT

Turning to “-fM-BacSp222 (from UniProt A0A0P0C3P7 2-50) (peptide)”, the TNF in the medium (ELISA) of P388.D1 cells, 1 µM -fM-BacSp222, 6 h, without antagonist stood at 257 pg/mL.

B1: suc-K20-BacSp222 (peptide)
peptide: For-MAGLLRFLLSKGRALYNWAK(Suc)SHVGKVWEWLKSGATYEQIKEWIENALGWR
With B1, the TNF in the medium (ELISA) of P388.D1 cells, 1 µM suc-K20-BacSp222, 6 h, without antagonist was found to be 213 pg/mL and the TNF in the medium (ELISA) of RAW 264.7 cells, 1 µM suc-K20-BacSp222, 6 h, without antagonist turned out to be 1280 pg/mL.

B2: BacSp222 bacteriocin (peptide)
peptide: For-MAGLLRFLLSKGRALYNWAKSHVGKVWEWLKSGATYEQIKEWIENALGWR
The molecule B2 displayed a TNF in the medium (ELISA) of P388.D1 cells, 1 µM BacSp222, 6 h, without antagonist of 252 pg/mL and a TNF in the medium (ELISA) of RAW 264.7 cells, 1 µM BacSp222, 6 h, without antagonist of 976 pg/mL.

The values are drawn from paper PMC10198859.
